Literature values as cited in PMC4887106.

Target: Histone H4K20me1/2 (Homo sapiens) (UniProt P62805)

For MBTD1 4xMBT (from UniProt Q05BQ5), the Kd is given as 10 µM.
